Reference: patent publication US20240270846A1 (published 2024)
Numbering of substitutions follows the chain as printed. Names and notes keep the numbering of the source. Values belong to the binder of their own block, whether it stands above or below them.

Molecular target: T1, CD3 epsilon homodimer protein (UniProt P07766 23-126)
T1 construct: also called CD3 (CD3 epsilon)
Test: SPR Biacore T200, antibody over immobilised CD3e homodimer;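 further: CD3 epsilon homodimer amine-coupled on a CM4 chip, run at 25 °C in HBS-EP+, Z = bound amount of each single-residue H chain variant over that of the parent antibody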

T1 sequence (P07766 23-126): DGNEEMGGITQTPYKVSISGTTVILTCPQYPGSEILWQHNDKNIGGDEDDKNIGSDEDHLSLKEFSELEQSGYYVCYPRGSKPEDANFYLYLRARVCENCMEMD

B1: CE115HA000 N31S one-arm antibody (antibody, human IgG1, kappa, L234A L235A, N297A, name in Kabat numbering)
heavy: QVQLVESGGGVVQPGRSLRLSCAASGFTFSSAWMHWVRQAPGKGLEWVAQIKAKSNNYATYYAESVKGRFTISRDDSKNSLYLQMNSLKTEDTAVYYCRYVHYGAYYGVDAWGQGTTVTVSSASTKGPSVFPLAPSSKSTSGGTAALGCLVKDYFPEPVTVSWNSGALTSGVHTFPAVLQSSGLYSLSSVVTVPSSSLGTQTYICNVNHKPSNTKVDKKVEPKSCDKTHTCPPCPAPEAAGGPSVFLFPPKPKDTLMISRTPEVTCVVVDVSHEDPEVKFNWYVDGVEVHNAKTKPREEQYASTYRVVSVLTVLHQDWLNGKEYKCKVSNKALPAPIEKTISKAKGQPREPQVYTLPPSRCELTKNQVSLSCAVKGFYPSDIAVEWESNGQPENNYKTTPPVLDSDGSFFLVSKLTVDKSRWQQGNVFSCSVMHEALHNHYTQKSLSLSPDYKDDDDK
chain: EPKSSDKTHTCPPCPAPELLGGPSVFLFPPKPKDTLMISRTPEVTCVVVDVSHEDPEVKFNWYVDGVEVHNAKTKPREEQYNSTYRVVSVLTVLHQDWLNGKEYKCKVSNKALPAPIEKTISKAKGQPREPQVCTLPPSRDELTKNQVSLWCLVKGFYPSDIAVEWESNGQPENNYKTTPPVLDSDGSFFLYSKLTVDKSRWQQGNVFSCSVMHEALHNRYTQKSLSLSP
light: DIVMTQSPLSLPVTPGEPASISCRSSQSLVHSNRNTYLHWYQQKPGQAPRLLIYKVSNRFSGVPDRFSGSGSGTDFTLKISRVEAEDVGVYYCGQGTQVPYTFGQGTKLEIKRTVAAPSVFIFPPSDEQLKSGTASVVCLLNNFYPREAKVQWKVDNALQSGNSQESVTEQDSKDSTYSLSSTLTLSKADYEKHKVYACEVTHQGLSSPVTKSFNRGEC
notes: one-arm antibody
ratio of amounts bound (Z=Y/X vs CE115HA000): 0.81

B4: CE115HA000 Q50E one-arm antibody (antibody, human IgG1, kappa, L234A L235A, N297A, name in Kabat numbering)
heavy: B1 heavy with S31N, Q50E
chain: B1 chain
light: B1 light
notes: one-arm antibody
ratio of amounts bound (Z=Y/X vs CE115HA000): 0.26

B6: CE115HA000 Q50K one-arm antibody (antibody, human IgG1, kappa, L234A L235A, N297A, name in Kabat numbering)
heavy: B1 heavy with S31N, Q50K
chain: B1 chain
light: B1 light
notes: one-arm antibody
ratio of amounts bound (Z=Y/X vs CE115HA000): 0.33

B7: CE115HA000 N54F one-arm antibody (antibody, human IgG1, kappa, L234A L235A, N297A, name in Kabat numbering)
heavy: B1 heavy with S31N, N57F
chain: B1 chain
light: B1 light
notes: one-arm antibody
ratio of amounts bound (Z=Y/X vs CE115HA000): 1.12

B8: CE115HA000 N31Y one-arm antibody (antibody, human IgG1, kappa, L234A L235A, N297A, name in Kabat numbering)
heavy: B1 heavy with S31Y
chain: B1 chain
light: B1 light
notes: one-arm antibody
ratio of amounts bound (Z=Y/X vs CE115HA000): 0.64

B13: CE115HA000 N53H one-arm antibody (antibody, human IgG1, kappa, L234A L235A, N297A, name in Kabat numbering)
heavy: B1 heavy with S31N, N56H
chain: B1 chain
light: B1 light
notes: one-arm antibody
ratio of amounts bound (Z=Y/X vs CE115HA000): 0.76

B14: CE115HA000 N54G one-arm antibody (antibody, human IgG1, kappa, L234A L235A, N297A, name in Kabat numbering)
heavy: B1 heavy with S31N, N57G
chain: B1 chain
light: B1 light
notes: one-arm antibody
ratio of amounts bound (Z=Y/X vs CE115HA000): 0.98

B18: CE115HA000 Q50A one-arm antibody (antibody, human IgG1, kappa, L234A L235A, N297A, name in Kabat numbering)
heavy: B1 heavy with S31N, Q50A
chain: B1 chain
light: B1 light
notes: one-arm antibody
ratio of amounts bound (Z=Y/X vs CE115HA000): 0.24

B20: CE115HA000 N53A one-arm antibody (antibody, human IgG1, kappa, L234A L235A, N297A, name in Kabat numbering)
heavy: B1 heavy with S31N, N56A
chain: B1 chain
light: B1 light
notes: one-arm antibody
ratio of amounts bound (Z=Y/X vs CE115HA000): 0.7

B21: CE115HA000 N53G one-arm antibody (antibody, human IgG1, kappa, L234A L235A, N297A, name in Kabat numbering)
heavy: B1 heavy with S31N, N56G
chain: B1 chain
light: B1 light
notes: one-arm antibody
ratio of amounts bound (Z=Y/X vs CE115HA000): 0.5

B22: CE115HA000 N31W one-arm antibody (antibody, human IgG1, kappa, L234A L235A, N297A, name in Kabat numbering)
heavy: B1 heavy with S31W
chain: B1 chain
light: B1 light
notes: one-arm antibody
ratio of amounts bound (Z=Y/X vs CE115HA000): 0.63

Further lines, results first:

ratio of amounts bound (Z=Y/X vs CE115HA000): 0.25
B2: CE115HA000 Q50Y one-arm antibody (antibody, human IgG1, kappa, L234A L235A, N297A, name in Kabat numbering)
heavy: B1 heavy with S31N, Q50Y
chain: B1 chain
light: B1 light
notes: one-arm antibody

ratio of amounts bound (Z=Y/X vs CE115HA000): 1.2
B3: CE115HA000 N54K one-arm antibody (antibody, human IgG1, kappa, L234A L235A, N297A, name in Kabat numbering)
heavy: B1 heavy with S31N, N57K
chain: B1 chain
light: B1 light
notes: one-arm antibody

ratio of amounts bound (Z=Y/X vs CE115HA000): 0.68
B5: CE115HA000 N53I one-arm antibody (antibody, human IgG1, kappa, L234A L235A, N297A, name in Kabat numbering)
heavy: B1 heavy with S31N, N56I
chain: B1 chain
light: B1 light
notes: one-arm antibody

ratio of amounts bound (Z=Y/X vs CE115HA000): 0.4
B9: CE115HA000 Q50I one-arm antibody (antibody, human IgG1, kappa, L234A L235A, N297A, name in Kabat numbering)
heavy: B1 heavy with S31N, Q50I
chain: B1 chain
light: B1 light
notes: one-arm antibody

ratio of amounts bound (Z=Y/X vs CE115HA000): 0.88
B10: CE115HA000 R16E one-arm antibody (antibody, human IgG1, kappa, L234A L235A, N297A, name in Kabat numbering)
heavy: B1 heavy with R16E, S31N
chain: B1 chain
light: B1 light
notes: one-arm antibody

ratio of amounts bound (Z=Y/X vs CE115HA000): 0.23
B11: CE115HA000 Q50L one-arm antibody (antibody, human IgG1, kappa, L234A L235A, N297A, name in Kabat numbering)
heavy: B1 heavy with S31N, Q50L
chain: B1 chain
light: B1 light
notes: one-arm antibody

ratio of amounts bound (Z=Y/X vs CE115HA000): 0.27
B12: CE115HA000 Q50D one-arm antibody (antibody, human IgG1, kappa, L234A L235A, N297A, name in Kabat numbering)
heavy: B1 heavy with S31N, Q50D
chain: B1 chain
light: B1 light
notes: one-arm antibody

ratio of amounts bound (Z=Y/X vs CE115HA000): 0.24
B15: CE115HA000 Q50S one-arm antibody (antibody, human IgG1, kappa, L234A L235A, N297A, name in Kabat numbering)
heavy: B1 heavy with S31N, Q50S
chain: B1 chain
light: B1 light
notes: one-arm antibody

ratio of amounts bound (Z=Y/X vs CE115HA000): 0.78
B16: CE115HA000 N53K one-arm antibody (antibody, human IgG1, kappa, L234A L235A, N297A, name in Kabat numbering)
heavy: B1 heavy with S31N, N56K
chain: B1 chain
light: B1 light
notes: one-arm antibody

ratio of amounts bound (Z=Y/X vs CE115HA000): 0.85
B17: CE115HA000 N54A one-arm antibody (antibody, human IgG1, kappa, L234A L235A, N297A, name in Kabat numbering)
heavy: B1 heavy with S31N, N57A
chain: B1 chain
light: B1 light
notes: one-arm antibody

ratio of amounts bound (Z=Y/X vs CE115HA000): 0.62
B19: CE115HA000 N54D one-arm antibody (antibody, human IgG1, kappa, L234A L235A, N297A, name in Kabat numbering)
heavy: B1 heavy with S31N, N57D
chain: B1 chain
light: B1 light
notes: one-arm antibody

ratio of amounts bound (Z=Y/X vs CE115HA000): 0.39
B23: CE115HA000 N53D one-arm antibody (antibody, human IgG1, kappa, L234A L235A, N297A, name in Kabat numbering)
heavy: B1 heavy with S31N, N56D
chain: B1 chain
light: B1 light
notes: one-arm antibody
